According to paper PMC4908180:

Columns and labels:
[1] = test system: Cc1cc2nc3c(=O)[nH]c(=O)nc-3n(C[C@H](O)[C@H](O)[C@H](O)COP(=O)(O)O)c2cc1C; experiment: purified protein; type: biochemical, Homo sapiens; details: 100 μM ATP, 5 mM MgCl2, 50 mM Tris-HCl pH 7.5, 37°C
[2] = test system: Nc1ncnc2c1ncn2[C@@H]1O[C@H](COP(=O)(O)OP(=O)(O)OP(=O)(O)O)[C@@H](O)[C@H]1O; experiment: purified protein; details: FMN co-substrate, MgCl2, Tris-HCl pH 7.5, 37°C

| Substance | Km [1] | Km [2] |
| --- | --- | --- |
| 6His-tagged human FADS isoform 2 (FADS2), WT (Homo sapiens; R530C) | 0.39 ± 0.07 µM | 4.63 ± 1.00 µM |
| 6His-tagged human FADS isoform 2 (FADS2), WT (Homo sapiens; DEL495-495) | 0.98 ± 0.23 µM | 8.02 ± 2.23 µM |
| 6His-tagged human FADS isoform 2 (FADS2), WT (Homo sapiens) | 0.32 ± 0.10 µM | 8.10 ± 1.37 µM |
